The results in this text go back to patent US20240368250A1 (Ablynx, published 2024).

For assay [1], the target named is T1, Human FcRn (biotinylated human FcRn) (human, UniProt P61769 21-119).
T1 construct: Biotinylated human FcRn captured on a Series S Sensor Chip SA; also called human neonatal Fc receptor; hFcRn
Description: SPR Biacore 8K+, biotinylated hFcRn on SA chip (~700 RU), pH 6.0, bivalent analyte fit.
Description: (§1) The Nanobody®VHH-IgG1 Fc/IgG1 proteins were characterized by affinity determination for human FcRn at pH 6.0 on the Biacore 8K+ instrument. For affinity measurements, ˜700 RU of biotinylated human FcRn was captured on a Series S Sensor Chip SA. […] Evaluation of the sensorgrams was based on the Bivalent Analyte fit.

In assay [2] the target is T1, Human FcRn (biotinylated human FcRn). Description: SPR Biacore 8K+, biotinylated hFcRn on SA chip (~700 RU), pH 6.0, bivalent analyte fit (KD1). A general note: SPR reads the build-up and loss of mass on a sensor chip optically.
Description: as §1
Assay [3] has the same target. As to the kind of experiment: SPR Biacore 8K+, biotinylated hFcRn on SA chip (~700 RU), pH 6.0, bivalent analyte fit (ka1).
Description: as §1
Assay [4] shares this target. Description: SPR Biacore 8K+, biotinylated hFcRn on SA chip (~700 RU), pH 6.0, bivalent analyte fit (kd1).
Description: as §1
Assay [5] shares this target. As to the kind of experiment: SPR Biacore 8K+, biotinylated hFcRn on SA chip (~600 RU), pH 6.0, bivalent analyte fit.
Assay [6] shares this target. As to the kind of experiment: SPR Biacore 8K+, biotinylated hFcRn on SA chip (~1000-2000 RU), pH 6.0, no HSA, 1:1 fit.
For assay [7] the target is unchanged. As to the kind of experiment: SPR Biacore 8K+, biotinylated hFcRn on SA chip (~600 RU), pH 6.0, bivalent analyte fit (KD1).
For assay [8] the target is unchanged. As to the kind of experiment: SPR Biacore 8K+, biotinylated hFcRn on SA chip (~600 RU), pH 6.0, bivalent analyte fit (ka1).
Assay [9] has the same target. Description: SPR Biacore 8K+, biotinylated hFcRn on SA chip (~600 RU), pH 6.0, bivalent analyte fit (kd1).
Assay [10] has the same target. Description: SPR Biacore 8K+, biotinylated hFcRn on SA chip (~1000-2000 RU), pH 6.0, no HSA, bivalent analyte fit.
The target is the same in assay [11]. Description: SPR Biacore 8K+, biotinylated hFcRn on SA chip (~1000-2000 RU), pH 6.0, no HSA, bivalent analyte fit (KD1).
Assay [12] shares this target. Description: SPR Biacore 8K+, biotinylated hFcRn on SA chip (~1000-2000 RU), pH 6.0, no HSA, bivalent analyte fit (ka1).
Assay [13] shares this target. Description: SPR Biacore 8K+, biotinylated hFcRn on SA chip (~1000-2000 RU), pH 6.0, no HSA, bivalent analyte fit (kd1).
For assay [14] the target is unchanged. As to the kind of experiment: SPR Biacore 8K+, biotinylated hFcRn on SA chip (~1000-2000 RU), pH 6.0, with 30 uM HSA, bivalent analyte fit.
Assay [15] has the same target. As to the kind of experiment: SPR Biacore 8K+, biotinylated hFcRn on SA chip (~1000-2000 RU), pH 6.0, with 30 uM HSA, bivalent analyte fit (KD1).
The target is the same in assay [16]. Description: SPR Biacore 8K+, biotinylated hFcRn on SA chip (~1000-2000 RU), pH 6.0, with 30 uM HSA, bivalent analyte fit (ka1).
The target is the same in assay [17]. As to the kind of experiment: SPR Biacore 8K+, biotinylated hFcRn on SA chip (~1000-2000 RU), pH 6.0, with 30 uM HSA, bivalent analyte fit (kd1).

Numbering of substitutions follows the chain as printed. Names may count otherwise.

B1: T-0263-00_TP117 (antibody, human IgG1, kappa)
heavy 1: not shown
heavy 2: EVQLVESGGGLVQPGGSLRLSCAASGFNIRDTYIHWVRQAPGKGLEWVARIYPTQGYTRYADSVKGRFTISADTSKNTAYLQMNSLRAEDTAVYYCSRWGGEGFYAMDYWGQGTLVTVSSASTKGPSVFPLAPSSKSTSGGTAALGCLVKDYFPEPVTVSWNSGALTSGVHTFPAVLQSSGLYSLSSVVTVPSSSLGTQTYICNVNHKPSNTKVDKKVEPKSCDKTHTCPPCPAPELLGGPSVFLFPPKPKDTLMISRTPEVTCVVVDVSHEDPEVKFNWYVDGVEVHNAKTKPREEQYNSTYRVVSVLTVLHQDWLNGKEYKCKVSNKALPAPIEKTISKAKGQPREPQVCTLPPSRDELTKNQVSLSCAVKGFYPSDIAVEWESNGQPENNYKTTPPVLDSDGSFFLVSKLTVDKSRWQQGNVFSCSVMHEALHNRFTQKSLSLSPG
light: not shown
notes: Full-length IgG1 with knob-in-hole mutations (hole chain H435R, Y436F), no C-terminal fusion
As for B1, in assay [1], the ka2 was 3.1e-05 1/RUs and the kd2 was 0.001 s⁻¹. The molecule also returned a Kd in assay [2] of 1300 nM. The kon (in general, the rate constant with which the complex forms) in assay [3] was found to be 120000 M⁻¹ s⁻¹. Moreover, in [4], the dissociation rate constant (koff) (in general, a measure of how fast the partners let go of each other) came to 0.16 s⁻¹.

B2: T-0263-00_TP118 (antibody, human IgG1, kappa)
heavy 1: not shown
heavy 2: B1 heavy 2
light: not shown
notes: Full-length IgG1 knob-in-hole with a C-terminal irrelevant ISVD (9GS) on chain 1; control of TP121
As to B2, in [1], the ka2 was 2.3e-05 1/RUs and the kd2 is 0.00054 s⁻¹. The molecule further showed a Kd in assay [2] of 1200 nM. The kon in assay [3] stood at 120000 M⁻¹ s⁻¹. Moreover, in assay [4], the off-rate constant (koff) came out at 0.15 s⁻¹.

B3: TP008 (Fc fusion)
chain 1: DVQLVESGGGLVQPGGSLRLSCAASGLTFSTNPMYWYRQAPGKQRELVASISSRGITNYADSVKGRFTISRDNSKNTVYLQMNSLRPEDTAVYYCRLASLSSGTVYWGQGTLVTVSSDKTHTCPPCPAPEAAGGPSVFLFPPKPKDTLMISRTPEVTCVVVDVSQEDPEVQFNWYVDGVEVHNAKTKPREEQFNSTYRVVSVLTVLHQDWLNGKEYKCKVSNKGLPSSIEKTISKAKGQPREPQVYTLPPCQEEMTKNQVSLWCLVKGFYPSDIAVEWESNGQPENNYKTTPPVLDSDGSFFLYSKLTVDKSRWQEGNVFSCSVMHEALHNHYTQKSLSLSLGGGGGSGGGGSGGGGSGGGGSGGGGSGGGGSGGGGSEVQLVESGGGLVQPGGSLRLSCAASGLTFSTNPMYWYRQAPGKQRELVASISSRGITNYADSVKGRFTISRDNSKNTVYLQMNSLRPEDTAVYYCRLASLSSGTVYWGQGTLVTVSS
chain 2: DKTHTCPPCPAPEAAGGPSVFLFPPKPKDTLMISRTPEVTCVVVDVSQEDPEVQFNWYVDGVEVHNAKTKPREEQFNSTYRVVSVLTVLHQDWLNGKEYKCKVSNKGLPSSIEKTISKAKGQPREPQVCTLPPSQEEMTKNQVSLSCAVKGFYPSDIAVEWESNGQPENNYKTTPPVLDSDGSFFLVSKLTVDKSRWQEGNVFSCSVMHEALHNHYTQKSLSLSLG
notes: IgG4 FALA Fc knob-in-hole
Regarding B3, the ka2 in assay [5] is 28.7 1/RUs; in [10] it was 6.2e-05 1/RUs; in [14] it was 7.1 1/RUs. Further, the kd2 in assay [5] came out at 51.1 s⁻¹; in assay [10] it was 0.0021 s⁻¹; in assay [14], 120 s⁻¹. Moreover, the Kd was 4.3 nM in assay [6], 6.1 nM in [7], 75 nM in [11] and 190 nM in [15]. Further, the koff in assay [6] was found to be 0.0086 s⁻¹; in assay [9], 0.0198 s⁻¹; in [13], 0.02 s⁻¹; in assay [17] it was 0.047 s⁻¹. The kon is 2e+06 M⁻¹ s⁻¹ in assay [6], 3.25e+06 M⁻¹ s⁻¹ in [8], 270000 M⁻¹ s⁻¹ in [12] and 260000 M⁻¹ s⁻¹ in [16].

B4: TP003 (Fc fusion)
chain 1: DVQLVESGGGLVQPGGSLRLSCAASGLTFSTNPMYWYRQAPGKQRELVASISSRGITNYADSVKGRFTISRDNSKNTVYLQMNSLRPEDTAVYYCRLASLSSGTVYWGQGTLVTVSSDKTHTCPPCPAPEAAGGPSVFLFPPKPKDTLMISRTPEVTCVVVDVSQEDPEVQFNWYVDGVEVHNAKTKPREEQFNSTYRVVSVLTVLHQDWLNGKEYKCKVSNKGLPSSIEKTISKAKGQPREPQVYTLPPCQEEMTKNQVSLWCLVKGFYPSDIAVEWESNGQPENNYKTTPPVLDSDGSFFLYSKLTVDKSRWQEGNVFSCSVMHEALHNHYTQKSLSLSLG
chain 2: B4 chain 1 with Y246C, C251S, W263S, L265A, Y304V
notes: IgG4 FALA Fc (knob-in-hole) with two N-terminal non-targeting ISVDs; also called control ISVD-Fc construct
As to B4, the ka2 in assay [5] was 0.011 1/RUs; in assay [10], 0.15 1/RUs; in assay [14] it was 100 1/RUs. The kd2 turned out to be 0.0329 s⁻¹ in assay [5], 2.4 s⁻¹ in assay [10] and 1900 s⁻¹ in assay [14]. In addition, the Kd in assay [6] came to 3.6 nM; in assay [7], 3.09 nM; in [11], 39 nM; in assay [15], 77 nM. For the same molecule, the off-rate constant (koff) was determined as 0.0017 s⁻¹ in assay [6], 0.000238 s⁻¹ in [9], 0.0098 s⁻¹ in assay [13] and 0.036 s⁻¹ in assay [17]. For the same molecule, the on-rate (kon) in assay [6] stood at 460000 M⁻¹ s⁻¹; in assay [8] it was 77000 M⁻¹ s⁻¹; in assay [12], 250000 M⁻¹ s⁻¹; in [16], 470000 M⁻¹ s⁻¹.
